Test [1] addresses T1, recombinant human PlGF-2 (produced in Pichia) (human, UniProt P49763-3 19-170, limits assumed).
T1 construct: also called huPlGF-2; rhuPlGF-2
T1 sequence (looked up): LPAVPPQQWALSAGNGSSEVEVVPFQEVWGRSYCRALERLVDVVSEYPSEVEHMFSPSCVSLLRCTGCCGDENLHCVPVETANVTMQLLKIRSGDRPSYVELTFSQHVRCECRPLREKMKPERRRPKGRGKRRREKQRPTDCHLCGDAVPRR
The experiment in a line: Biacore, rhuPlGF-2 (Pichia) immobilized, antibody injected. For orientation: SPR reads the build-up and loss of mass on a sensor chip optically.

For test [2], the target named is T2, human PlGF-1 (human, UniProt P49763-2 19-149, limits assumed).
T2 construct: also called huPlGF-1; huPlGF
T2 sequence (looked up): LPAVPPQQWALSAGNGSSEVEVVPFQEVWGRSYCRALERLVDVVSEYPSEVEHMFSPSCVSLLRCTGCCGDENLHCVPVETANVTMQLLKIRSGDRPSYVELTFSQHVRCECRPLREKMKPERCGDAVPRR
The test is described as follows: ELISA, plate coated with huPlGF-1, detection with anti-huIgG-HRP (Fab specific), OPD. As for the experimental part: ELISA plates were coated ON with […] huPlGF-1 in PBS, 100 μL/well, 4° C. After blocking with 1% BSA, 1 hr, RT, a dilution series of humanized Fab16D3 was added, 100 μL/well, the antibody fragment was allowed to bind for 1 hr, RT. Bound humanized Fab16D3 was detected with anti-huIgG-HRP(Fab specific) (100 μL/well, 1 hr RT). The assay was developed with OPD.

For test [3], the target named is T2, human PlGF-1. The experiment in a line: ELISA, plate coated with 1 µg/ml huPlGF-1, detection with murine anti-HA and goat anti-murine IgG-HRP, OPD. As for the experimental part:
ELISA plates were coated ON with 1 μg/ml huPlGF-1 in PBS, 200 μL/well, 4° C. After blocking with 1% BSA, 1 hr, RT, a dilution series of scFv16D3/humanized scFv16D3 was added, 200 μL/well, the antibody fragment was allowed to bind for 1 hr, RT. Bound scFv16D3 was detected with murine anti-HA (180 μL/well, 1 hr RT) followed by incubation with goat-anti-murine IgG-HRP (Sigma), 170 μL/well, 1 hr, RT. The assay was developed with OPD.
A general note: An ELISA detects its analyte on a solid surface through an enzyme-linked reagent.

Broadly, the Kd is the equilibrium constant for the complex coming apart. As a reminder, the EC50 (read off the curve) is the concentration needed to bring the measured effect to its halfway point. A low value points to higher potency in that assay.

B1: murine monoclonal anti-human PlGF antibody 16D3 (antibody, V domains shown)
VH: QIQLQQSGPELVKPGASVKISCKASGYTFTDYYINWVKLKPGQGLEWIGWIYPGSGNTKYNEKFKGKATLTIDTSSSTAYMQLSSLTSEDTAVYFCVRDSPFFDYWGQGTTLTVSS
VL: DIVLSQSPSSLAVSAGEKVTMRCKSSQSLLNSGMRKSFLAWYQQKPGQSPKLLIYWASTRESGVPDRFTGSGSGTDFTLTISSVQAEDLAVYYCKQSYHLFTFGSGTKLEIK
notes: Whole mouse antibody from hybridoma LMBP 6399CB; also called anti-hPlGF; hp16D3mousecomplAB
As for B1, the Kd in test [1] stood at 290 pM.

B2: humanized antibody 16D3 IgG4 kappa (antibody, V domains shown)
VH: QVQLQQSGAELVKPGASVKISCKASGYTFTDYYINWVKLAPGQGLEWIGWIYPGSGNTKYNEKFKGKATLTIDTSSSTAYMQLSSLTSEDTAVYFCVRDSPFFDYWGQGTLLTVSS
VL: DIVLTQSPDSLAVSLGERVTMNCKSSQSLLNSGMRKSFLAWYQQKPGQSPKLLIYWASTRESGVPDRFTGSGSGTDFTLTISSVQAEDVAVYYCKQSYHLFTFGSGTKLEIK
notes: Expressed transiently in HEK 293 cells; also called hu16D3; Hu16D3 IgG4κ
For the molecule B2, the Kd in test [1] is 161 pM.

B3: humanized Fab 16D3 (Fab, V domains shown)
VH: QVQLQQSGAELVKPGASVKISCKASGYTFTDYYINWVKLAPGQGLEWIGWIYPGSGNTKYNEKFKGKATLTIDTSSSTAYMQLSSLTSEDTAVYFCVRDSPFFDYWGQGTLLTVSS
VL: DIVLTQSPDSLAVSLGERVTMNCKSSQSLLNSGMRKSFLAWYQQKPGQSPKLLIYWASTRESGVPDRFTGSGSGTDFTLTISSVQAEDVAVYYCKQSYHLFTFGSGTKLEIK
notes: also called hp16D3mutcomplFab; hp16D3mutcmplFab
With B3, in test [1], the equilibrium dissociation constant (Kd) worked out at 131 pM. In the test with human PlGF-1 [2], the “EC50 (read off the curve)” value is ~90 µg/mL.

B4: humanized scFv of 16D3 (scFv)
scFv: QVQLQQSGAELVKPGASVKISCKASGYTFTDYYINWVKLAPGQGLEWIGWIYPGSGNTKYNEKFKGKATLTIDTSSSTAYMQLSSLTSEDTAVYFCVRDSPFFDYWGQGTLLTVSSGGGGSGGGGSGGGGSDIVLTQSPDSLAVSLGERVTMNCKSSQSLLNSGMRKSFLAWYQQKPGQSPKLLIYWASTRESGVPDRFTGSGSGTDFTLTISSVQAEDVAVYYCKQSYHLFTFGSGTKLEIKGSYPYDVPDYAGSHHHHHH
notes: also called humanized scFv16D3; scFvhp16D3mut
For the molecule B4, the Kd in test [1] was 195 pM. In addition, the half-maximal effective concentration (EC50 (read off the curve)) with human PlGF-1 [3] was ~0.1 µg/mL.

B5: scFv of murine antibody 16D3 (scFv)
scFv: QIQLQQSGPELVKPGASVKISCKASGYTFTDYYINWVKLKPGQGLEWIGWIYPGSGNTKYNEKFKGKATLTIDTSSSTAYMQLSSLTSEDTAVYFCVRDSPFFDYWGQGTTLTVSSGGGGSGGGGSGGGGSDIVLSQSPSSLAVSAGEKVTMRCKSSQSLLNSGMRKSFLAWYQQKPGQSPKLLIYWASTRESGVPDRFTGSGSGTDFTLTISSVQAEDLAVYYCKQSYHLFTFGSGTKLEIKGSYPYDVPDYAGSHHHHHH
notes: also called scFv16D3; scFv hp16D3
As for B5, in the test with human PlGF-1 [3], the “EC50 (read off the curve)” value was ~0.1 µg/mL.

The values above are taken from US20110123525A1 (THROMBOGENICS N V, published 2011).
